Laboratory results reported in US20230357354A1, “CD38-BINDING CD31 PEPTIDES AND USES THEREOF” (ENCEFA, priority 2020, published 2023).

Each substance was assayed against recombinant His-tagged CD38 (Homo sapiens, UniProt P28907) (assay: Pepscan-based ELISA of His-tagged CD38 on CD31 peptide arrays). Conditions: mimic type BET (β-turn mimic, mP2 CLIPS); sample with the highest signal.
Format: binding
Description: Different sets of sCD31 peptides were synthesized according to the following designs. Note that actual order of peptides on mini-cards in some was randomized. • Set #1 • Mimic type: linear • Label: LIN15 • Linear peptides of 15 consecutive amino acid residues in length, derived from the target sequence of sCD31 with an offset of […]. • Set #2 • Mimic type: single loop (mP2 CLIPS) • Label: LOOP7 • Constrained peptides of 9 amino acid residues in length. On positions 2-8 are incorporated 7 consecutive amino acid residues derived from the target sequence of sCD31 with an offset of 1.3 residues. Cys residues were inserted on positions 1 and 9 and joined by mP2 CLIPS in order to create a loop mimic. Native Cys residues, if present, were replaced by Ser residues. • Set #3 • Mimic type: single loop, (mP2 CLIPS) • Label: LOOP15 • Constrained peptides of 17 amino acid residues in length. On positions 2-16 are incorporated 15 consecutive amino acid residues derived from the target sequence of sCD31 with an offset of […]. Cys residues were inserted on positions 1 and 17 and joined by mP2 CLIPS in order to create a loop mimic. Native Cys residues, if present, were replaced by Ser residues. • Set #4 • Mimic type: β-turn peptide mimics (mP2 CLIPS) • Label: BET • β-turn peptide mimics of 22 amino acid residues in length. On positions 2-21 are incorporated 20 consecutive amino acid residues derived from the target sequence of sCD31 with an offset of 1.3 residues. Residues on positions 11 and 12 are replaced by a Pro-Gly motif in order to induce the β-turn formation. Cys residues were inserted on positions 1 and 22 and joined by mP2 CLIPS in order to stabilize the mimic. Native Cys residues, if present, were replaced by Ser residues.
To reconstruct epitopes of sCD31, a library of peptide-based peptide mimics was synthesized using Fmoc-based solid-phase peptide synthesis. An amino functionalized polypropylene support was obtained by grafting with a hydrophilic polymer formulation, followed by reaction with t-butyloxycarbonyl-hexamethylenediamine (BocHMDA) using dicyclohexylcarbodiimide (DCC) with N-hydroxybenzotriazole (HOBt) and subsequent cleavage of the Boc-groups using trifluoroacetic acid (TFA).
Standard Fmoc-peptide synthesis was used to synthesize peptides on the amino-functionalized solid support by custom modified JANUS liquid handling stations (Perkin Elmer).
Synthesis of structural mimics was done using CLIPS technology. CLIPS technology allows to structure peptides into single loops, double loops, triple loops, sheet-like folds, helix-like folds, and combinations thereof. CLIPS templates are coupled to cysteine residues. The side-chains of multiple cysteines in the peptides are coupled to one or two CLIPS templates. For example, a 0.5 mM solution of the P2 CLIPS (2,6-bis(bromomethyl)pyridine) is dissolved in ammonium bicarbonate (20 mM, pH 7.8)/acetonitrile (1:3, v/v). This solution is added onto the peptide arrays. The CLIPS template binds to side-chains of two cysteines as present in the solid-phase bound peptides of the peptide-arrays (455 wells plate with 3-µL wells). The peptide arrays are gently shaken in the solution for 30 to 60 minutes while completely covered in solution.
Finally, the peptide arrays are washed extensively with excess of H2O and sonicated in disrupt-buffer containing 1% SDS / 0.1 % 2,2′-(ethylenedioxy)diethanethiol in PBS (pH 7.2) at 70° C. for 30 minutes, followed by sonication in H2O for another 45 minutes.
The binding of the sample (recombinant His-tagged CD38; 9 µg/mL and 20 µg/mL) to each of the synthesized peptides was tested in a pepscan-based ELISA. The peptide arrays were incubated with primary sample solution (overnight at 4° C.). […]

| Value (binding intensity of His-tagged CD38), BET conformational peptide array [mAU] | Substance |
| --- | --- |
| 679 | 265 (CTTSHVKPQHPGLFYKDDVLFC) [compound 265] |
| 725 | 266 (CTSHVKPQHQPGFYKDDVLFYC) [compound 266] |
| 662 | 267 (CSHVKPQHQMPGYKDDVLFYNC) [compound 267] |
| 792 | 268 (CVKPQHQMLFPGDDVLFYNISC) [compound 268] |
| 641 | 269 (CKPQHQMLFYPGDVLFYNISSC) [compound 269] |
| 378 | 270 (CYKDDVLFYNPGSMKSTESYFC) [compound 270] |
| 695 | 271 (CKDDVLFYNIPGMKSTESYFIC) [compound 271] |
| 524 | 272 (CDDVLFYNISPGKSTESYFIPC) [compound 272] |
| 632 | 273 (CVLFYNISSMPGTESYFIPEVC) [compound 273] |
| 897 | 274 (CKMVKLKREKPGRDQNFVILEC) [compound 274] |
| 833 | 275 (CKLKREKNSRPGNFVILEFPVC) [compound 275] |
| 817 | 276 (CLKREKNSRDPGFVILEFPVEC) [compound 276] |
| 839 | 277 (CSKVESSRISPGSSIVVNITEC) [compound 277] |
| 637 | 278 (CESSRISKVSPGVVNITELFSC) [compound 278] |
| 461 | 279 (CPANFTIQKEPGIVSQTQDFTC) [compound 279] |
| 417 | 280 (CQIVVSEMLSPGRISYDAQFEC) [compound 280] |
| 414 | 281 (CIVVSEMLSQPGISYDAQFEVC) [compound 281] |
| 635 | 282 (CVVSEMLSQPPGSYDAQFEVIC) [compound 282] |
| 601 | 283 (CLSEVLRVKVPGPVDEVQISIC) [compound 283] |
| 447 | 284 (CEVLRVKVIAPGDEVQISILSC) [compound 284] |

Same assay, conditions: mimic type LOOP7 (single loop, mP2 CLIPS); sample with the highest signal

| Value (binding intensity of His-tagged CD38), LOOP7 conformational peptide array [mAU] | Substance |
| --- | --- |
| 1186 | 291 (CNFVILEFC) [compound 291] |

Same assay, conditions: mimic type LOOP15 (single loop, mP2 CLIPS); sample with the highest signal

| Value (binding intensity of His-tagged CD38), LOOP15 conformational peptide array [mAU] | Substance |
| --- | --- |
| 343 | 240 (CSSMKSTESYFIPEVRC) [compound 240] |
| 325 | 241 (CMKSTESYFIPEVRIYC) [compound 241] |
| 528 | 242 (CKSTESYFIPEVRIYDC) [compound 242] |
| 660 | 243 (CSTESYFIPEVRIYDSC) [compound 243] |
| 465 | 244 (CTESYFIPEVRIYDSGC) [compound 244] |
| 373 | 245 (CESYFIPEVRIYDSGTC) [compound 245] |
| 416 | 246 (CYFIPEVRIYDSGTYKC) [compound 246] |
| 516 | 247 (CKREKNSRDQNFVILEC) [compound 247] |
| 1073 | 248 (CREKNSRDQNFVILEFC) [compound 248] |
| 566 | 249 (CEKNSRDQNFVILEFPC) [compound 249] |
| 624 | 250 (CKNSRDQNFVILEFPVC) [compound 250] |
| 634 | 251 (CDQNFVILEFPVEEQDC) [compound 251] |
| 729 | 252 (CQNFVILEFPVEEQDRC) [compound 252] |
| 524 | 253 (CNFVILEFPVEEQDRVC) [compound 253] |
| 550 | 254 (CFVILEFPVEEQDRVLC) [compound 254] |
| 320 | 255 (CSTIQVTHLAQEFPEIC) [compound 255] |
| 504 | 256 (CTIQVTHLAQEFPEIIC) [compound 256] |
| 797 | 257 (CIQVTHLAQEFPEIIIC) [compound 257] |
| 617 | 258 (CQVTHLAQEFPEIIIQC) [compound 258] |
| 343 | 259 (CVTHLAQEFPEIIIQKC) [compound 259] |
| 287 | 260 (CSSRISKVSSIVVNITC) [compound 260] |
| 567 | 261 (CRISKVSSIVVNITELC) [compound 261] |
| 795 | 262 (CISKVSSIVVNITELFC) [compound 262] |
| 593 | 263 (CSKVSSIVVNITELFSC) [compound 263] |
| 211 | 264 (CKVSSIVVNITELFSKC) [compound 264] |

The substances below were run on human Daudi cells (assay: not given). Conditions: glucose-deprived cells, 1 hour treatment (1 µM per figure legends; 10 µg/mL per method), 2-NBDG 500 µM 30 minutes.
Format: cell-based
Description: Human Daudi cells cultured in 75 cm^2 flask were centrifuged ( 300 g, 3 minutes), resuspended in warmed PBS supplemented with 10 % goat serum and seeded in 96-well microplate ( 100 µL, 2 × 10^6 cells/mL) in order to deprive cells from glucose. Cells were treated with test treatments (10 µg/mL) for 1 hour (37° C.). Cells were then incubated with 500 µM of the fluorescent and non-metabolizable glucose analog 2-NBDG ((2R,3R,4S,5R)-3,4,5,6-tetrahydroxy-2-[(7-nitro-2,1,3-benzoxadiazol-4-yl)amino]hexanal; Thermo Fischer) for 30 minutes at 37° C., and washed 4 times with PBS containing 10 % of goat serum. Images were acquired using a Zeiss microscope (20 X) and the relative fluorescence intensity of 30 cells was determined using Fiji.
To determine the effect of test compounds on glucose uptake, we developed a cellular model based on the use of human Daudi cells, a cell line known to strongly express CD38.
Human Daudi cells were plated in culture medium deprived of glucose and exposed to test treatments (peptides of Table 6) for 1 hour and then incubated with the non-metabolizable, fluorescent glucose 2-NBDG. After 30 minutes of incubation, cells were washed and imaged using a microscope. Fluorescence levels were determined using Fiji.

| Substance | glucose uptake (2-NBDG fluorescence) |
| --- | --- |
| FELIVFN (Scramble peptide) [SEQ ID NO: 285, scramble peptide containing the same amino acid residues as NFVILEF in a different order] | not able to increase glucose uptake |
| FVILEFP [SEQ ID NO: 292] | failed to reproduce the effect of sCD31 |
| HFVILEFP [SEQ ID NO: 304] | impact the glucose uptake-increasing activity of the peptide |
| NDVILEFP [SEQ ID NO: 310] | impact the glucose uptake-increasing activity of the peptide |
| NFVALEFP [SEQ ID NO: 296] | slightly decreased the activity of the peptide, although it remained overall active |
| NFVDLEFP [SEQ ID NO: 315] | impact the glucose uptake-increasing activity of the peptide |

Same assay, conditions: parent SEQ ID NO: 6 (deletions) or SEQ ID NO: 8 (alanine scanning); 2-NBDG fluorescence

| Substance | effect of the C-terminal deletion or alanine substitution (relative to the parent peptide) on glucose uptake |
| --- | --- |
| NFAILEFP [SEQ ID NO: 295] | had no effect on glucose uptake |
